Reference: US20260158064A1 (NANJING PROBIO BIOTECH, published 2026)
Numbering of substitutions follows the chain as printed.

B1: single domain antibody AHP15776 (Fc fusion)
chain: QVQLVESGGGLVQPGGSLTLSCAASQSISSIYLLGWYRQAPGKERESVARITTSGTTTYIADSVKGRFTLSRDNAKNTMYLQMNSLKPEDTAVYYCNVPFLVATARGNAYWGQGTQVTVSS
notes: VHH expressed from pcDNA3.4-Fc (HuIgG1); not shown: human IgG1 Fc of the pcDNA3.4-Fc (HuIgG1) expression vector
B2: single domain antibody AHP15773 (Fc fusion)
chain: EVQLVESGGGLVQPGGSLRLSCLASGSDFSDSAMGWYRQAPGKQREFVAAIGAGGITTYADSVKGRFTISRDSAKNIVYLQMSSLSPEDTAVYFCNFAPGWYPPGYQYWGQGTQVTVSS
notes: VHH expressed from pcDNA3.4-Fc (HuIgG1); also called AHP15773-VHH; not shown: human IgG1 Fc of the pcDNA3.4-Fc (HuIgG1) expression vector
B3: single domain antibody AHP15662 (Fc fusion)
chain: EVQLVESGGGLVQPGGTLRLSCAASGSISRFYAVGWYRQAPGKQRELVARISSGGSTYYADSVKGRFTISINNSKNTVYLQMNNLKPEDTAVYYCNARNLWGQGTQVTVSS
notes: VHH expressed from pcDNA3.4-Fc (HuIgG1); also called AHP15662-VHH; not shown: human IgG1 Fc of the pcDNA3.4-Fc (HuIgG1) expression vector
B4: single domain antibody AHP15485 (Fc fusion)
chain: EVQLVESGGGLAQAGGSLSLSCTASGRSFSNFQMGWFRQAPGKEREFVAASGWSGGPTYYADSVKGRFTISTDDSKKTMYLQMNSLKPEDTAAYYCYEDRVLSGRPVRYWGRGTQVTVSS
notes: Alpaca VHH expressed from pcDNA3.4-Fc (HuIgG1) in HEK293-6E; also called AHP15485-VHH; not shown: human IgG1 Fc of the pcDNA3.4-Fc (HuIgG1) expression vector
B5: single domain antibody AHP15547 (Fc fusion)
chain: AVQLVDSGGGSVQPGESLTLSCTGSARFLSNYGMGWYRQFPGKMREMVAYETNRGNKRYAESVKGRFRIARDAAKTTVYLEMNSLKPEDTAVYYCNAESSGWGRRNYWGQGTQVTVSS
notes: as for B1
B6: humanized single domain antibody AHP15485-VHH4 (Fc fusion)
chain: EVQLVESGGGLVQPGGSLRLSCAASGRSFSNFQMGWFRQAPGKEREFVAASGWSGGPTYYADSVKGRFTISTDNSKNTLYLQMNSLRAEDTAVYYCYEDRVLSGRPVRYWGQGTLVTVSS
notes: Humanized VHH expressed from pcDNA3.4-Fc (Human IgG1); not shown: human IgG1 Fc of the pcDNA3.4-Fc (Human IgG1) expression vector
B7: humanized single domain antibody AHP15773-VHH4 (Fc fusion)
chain: B2 chain with L23A, S73N, I77T, V78L, S83N, S86R, P87A, Q114L
notes: as for B6
B8: humanized single domain antibody AHP15662-VHH4 (Fc fusion)
chain: B3 chain with T17S, N72D, V78L, N84S, K86R, P87A, Q106L
notes: as for B6
B9: single domain antibody AHP15485-VHH4-Variant2 (Fc fusion)
chain: B6 chain with N31S, A61W, K65I
notes: Fc format is inferred; not shown: human IgG1 Fc; vector and li
B10: single domain antibody AHF22018 (Fc fusion)
chain: B6 chain with N31S, A61W, V64W, P106W
notes: not shown: human IgG1 Fc; vector and li
B11: single domain antibody AHF22013 (Fc fusion)
chain: B6 chain with N31S, A61W, K65I, P106H
notes: as for B9
B12: single domain antibody AHP15485-VHH4-Variant1 (Fc fusion)
chain: B6 chain with A61W, K65I
notes: as for B9
B13: single domain antibody AHF21719 (Fc fusion)
chain: B3 chain with T17S, S27Y, V34M, S56W, N72D, V78L, N84S, K86R, P87A, Q106L
notes: as for B9
B14: single domain antibody AHP15662-VHH4-Variant1 (Fc fusion)
chain: B3 chain with T17S, G26Y, S27Y, S56W, N72D, V78L, N84S, K86R, P87A, Q106L
notes: as for B9
B15: single domain antibody AHP15662-VHH4-Variant3 (Fc fusion)
chain: B3 chain with T17S, G26H, S27Y, S56W, N72D, V78L, N84S, K86R, P87A, Q106L
notes: as for B9
B16: single domain antibody AHF21720 (Fc fusion)
chain: EVQLVESGGGLVQPGGSLRLSCAASGYISRFYAMGWYRQAPGKQRELVARISSLGWTYYADSVKGRFTISIDNSKNTLYLQMNSLRAEDTAVYYCNARNLWGQGTLVTVSS
notes: as for B9
B17: single domain antibody AHP15662-VHH4-Variant2 (Fc fusion)
chain: B16 chain with G26Y, Y27F, M34V, L54G
notes: as for B9
B18: single domain antibody AHF21721 (Fc fusion)
chain: B16 chain with Y27F, L54M
notes: as for B9
B19: single domain antibody AHF21711 (Fc fusion)
chain: B16 chain with G26H, Y27S, M34I, L54M, W56R
notes: as for B9

target: T1, human ROR1-His protein (fused with a His protein tag, Acrobiosystems, RO1-H522y) (human, UniProt Q01973 30-403); test: indirect ELISA, antigen coated at 1 ug/ml
T1 construct: also called recombinant human ROR1-His protein; not shown: His tag
Description: (§1) Indirect ELISA was used to assess the binding capability of the above purified antibodies to human ROR1-related recombinant proteins. ELISA plates (Nunc) were coated with 1 μg/ml of human ROR1-His protein, human ROR1 Frizzled-His domain protein, and human ROR1 Kringle-His domain protein in 100 μl/well of CBS overnight at 4° C. The plates were washed with PBS-T (0.05% Tween) and blocked with 300 μl/well of PBS containing 3% skim milk at 37° C. for 1 hour. Subsequently, the blocking solution was discarded, and 100 μl of purified antibody at 8 μg/ml (about 100 nM) was added to the first well and diluted according to a 3-fold gradient to obtain a total of 11 test concentration gradients. The plates were then incubated for 1 hour at room temperature. The plates were washed 3 times with PBST and incubated with 100 μl/well of horseradish peroxidase-conjugated mouse anti-human IgG Fc fragment (GenScript) for 0.5 hours at 37° C. The plates were washed five times with PBST, a TMB chromogenic solution (GenScript) was then added, and the plates were incubated for 15 minutes at room temperature in the dark. The reaction was stopped by adding 50 μl of 1 M HCl stop solution (Sigma). The plates were read at 450 nm using a microplate reader. FIGS. 1-3 show the results of the ELISA experiment on the binding of 8 positive recombinant antibody clones to ROR1-related antigen proteins, and the EC₅₀ for each antibody is as shown in Table 2 below: the antigen binding capacity of the antibodies tested was all equal to or higher than that of the positive reference antibody R11-scFv.

T1 sequence (Q01973 30-403 limits assumed): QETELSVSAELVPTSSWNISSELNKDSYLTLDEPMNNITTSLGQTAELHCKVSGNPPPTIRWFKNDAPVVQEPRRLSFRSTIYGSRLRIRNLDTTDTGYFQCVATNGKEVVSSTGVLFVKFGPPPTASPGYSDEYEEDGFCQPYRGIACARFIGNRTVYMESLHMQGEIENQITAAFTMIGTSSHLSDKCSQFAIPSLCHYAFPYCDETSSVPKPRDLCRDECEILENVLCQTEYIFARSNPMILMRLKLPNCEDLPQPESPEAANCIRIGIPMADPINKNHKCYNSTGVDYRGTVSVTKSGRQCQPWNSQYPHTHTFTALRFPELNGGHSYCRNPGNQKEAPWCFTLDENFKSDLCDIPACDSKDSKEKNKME

Row | EC50 | Binder
1 | 0.0109 µg/mL | B1
2 | 0.0155 µg/mL | B2
3 | 0.0105 µg/mL | B3
4 | 0.0061 µg/mL | B4
5 | 0.0105 µg/mL | B5

target: T2, human ROR1 Frizzled-His domain protein (amino acid sequence at positions 165-305, Acrobiosystems, RO1-H5222) (human, UniProt Q01973 165-305); test: indirect ELISA, antigen coated at 1 ug/ml
T2 construct: also called Human ROR1 Frizzled-His protein; not shown: His tag
Description: as §1

T2 sequence (Q01973 165-305 limits assumed, form in doubt): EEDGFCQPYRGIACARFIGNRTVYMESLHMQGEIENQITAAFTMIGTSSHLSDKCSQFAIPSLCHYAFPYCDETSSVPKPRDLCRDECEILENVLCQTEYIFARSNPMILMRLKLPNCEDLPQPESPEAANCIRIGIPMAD

Row | EC50 | Binder
6 | 0.023 µg/mL | B1
7 | 0.0105 µg/mL | B3
8 | 0.0165 µg/mL | B5

target: T3, mouse ROR1 expressed on CHO cells (CHO-K1/Mouse ROR1 stable cells) (mouse, UniProt Q9Z139 30-937); test: flow cytometry, antibody at 10 ug/ml on CHO cells
T3 construct: whole, on cells
Description: (§2) CHO cells expressing human and mouse ROR1 and parental cells as the negative control for detection were collected and washed 3 times with PBS. 2.5×10⁵ test cells and 100 μl of purified antibody at 10 μg/ml were added to a 96-well plate, and the plate was incubated at 4° C. for 1 hour. The cells were then washed 3 times with PBS, 100 μl of iFluor-labeled goat anti-human IgG, an Fcγ-specific fragment antibody, was added, and the plate was incubated at 4° C. for 45 minutes. Finally, the cells were washed 3 times with PBS, and the signals were read using FACS BD Calibur.

T3 sequence (Q9Z139 30-937): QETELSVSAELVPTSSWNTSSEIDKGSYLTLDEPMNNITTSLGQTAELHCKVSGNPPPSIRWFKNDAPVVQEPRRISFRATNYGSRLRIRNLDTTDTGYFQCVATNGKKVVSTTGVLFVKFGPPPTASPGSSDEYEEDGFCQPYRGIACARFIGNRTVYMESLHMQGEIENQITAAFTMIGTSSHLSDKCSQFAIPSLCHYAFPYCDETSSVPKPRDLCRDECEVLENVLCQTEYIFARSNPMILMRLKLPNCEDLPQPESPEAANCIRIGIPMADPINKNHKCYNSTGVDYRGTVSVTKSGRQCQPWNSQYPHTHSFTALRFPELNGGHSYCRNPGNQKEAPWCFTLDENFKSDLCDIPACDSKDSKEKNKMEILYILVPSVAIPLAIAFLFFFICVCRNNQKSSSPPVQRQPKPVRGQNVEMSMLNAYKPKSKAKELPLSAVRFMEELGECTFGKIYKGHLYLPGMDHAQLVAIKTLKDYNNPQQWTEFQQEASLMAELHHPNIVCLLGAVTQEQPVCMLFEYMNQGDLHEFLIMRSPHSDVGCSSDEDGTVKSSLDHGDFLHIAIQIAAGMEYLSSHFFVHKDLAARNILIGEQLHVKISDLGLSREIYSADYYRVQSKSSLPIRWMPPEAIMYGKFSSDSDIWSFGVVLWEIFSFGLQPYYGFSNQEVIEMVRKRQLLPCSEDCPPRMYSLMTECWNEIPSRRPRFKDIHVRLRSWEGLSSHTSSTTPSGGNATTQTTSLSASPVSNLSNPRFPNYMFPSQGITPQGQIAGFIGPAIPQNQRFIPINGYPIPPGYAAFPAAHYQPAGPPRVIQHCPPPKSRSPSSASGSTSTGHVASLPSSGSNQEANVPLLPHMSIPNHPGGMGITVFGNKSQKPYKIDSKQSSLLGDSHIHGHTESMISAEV

Row | binding result | Binder
9 | binds | B1
10 | binds | B5

target: T1, human ROR1-His protein (fused with a …); test: SPR Biacore T200, antibody Fc-captured, antigen as analyte
Description: (§3) The affinity of purified antibodies for human ROR1-related proteins was determined separately using the surface plasmon resonance (SPR) biosensor Biacore T200 (GE Healthcare). The antibodies were immobilized on the sensor chip by the Fc capture method. Human ROR1-related proteins were used as analytes. Data for dissociation (kd) and association (ka) rate constants were obtained using the Biacore T200 evaluation software. The equilibrium dissociation constant (KD) was calculated from the ratio of kd to ka.

Row | Kd | koff | kon | Binder
11 | 320 nM | 0.0686 s⁻¹ | 214000 M⁻¹ s⁻¹ | B6
12 | 757 nM | 0.117 s⁻¹ | 155000 M⁻¹ s⁻¹ | B2
13 | 319 nM | 0.0587 s⁻¹ | 184000 M⁻¹ s⁻¹ | B7
14 | 280 nM | 0.063 s⁻¹ | 225000 M⁻¹ s⁻¹ | B4

target: T2, human ROR1 Frizzled-His domain protein …; test: as above
Description: as §3

Row | Kd | koff | kon | Binder
15 | 550 nM | 0.19 s⁻¹ | 345000 M⁻¹ s⁻¹ | B3
16 | 247 nM | 0.111 s⁻¹ | 449000 M⁻¹ s⁻¹ | B8

target: T1, human ROR1-His protein (fused with a …); test: SPR Biacore T200, method as Example 6 (antibody Fc-captured, antigen as analyte)
Description: as §3
(§4) According to the mutation status of the improved clones in the precise saturation mutation library, the combinatorial mutations and the relevant primers for library construction for the second round were designed. The combinatorial mutation library construction was performed still using the prokaryotic soluble expression plasmid of the humanized single domain antibody as the template. The subsequent screening process was the same as that for the precise saturation mutation library. Finally, the top 5 or 7 clones ranked by the improvement fold in affinity were selected for recombinant verification. 5 clones with improved affinity (AHF22016, AHF22018, AHF22013, AHP15485-VHH4-Variant1, and AHP15485-VHH4-Variant2) were obtained from the humanized antibody AHP15485 through affinity maturation screening, and were subjected to eukaryotic expression and purification, as well as subsequent affinity detection at various concentrations. 7 clones (AHP15662-VHH4-Variant1, AHP15662-VHH4-Variant2, AHP15662-VHH4-Variant3, AHF21711, AHF21719, AHF21720, and AHF21721) were obtained from AHP15662-VHH4.

Row | Kd | koff | kon | Binder
17 | 21.4 nM | 0.0018 s⁻¹ | 84000 M⁻¹ s⁻¹ | B9
18 | 20.3 nM | 0.000884 s⁻¹ | 43500 M⁻¹ s⁻¹ | B10
19 | 8.91 nM | 0.000374 s⁻¹ | 42000 M⁻¹ s⁻¹ | B11
20 | 184 nM | 0.0153 s⁻¹ | 83100 M⁻¹ s⁻¹ | B12
21 | 290 nM | 0.0547 s⁻¹ | 189000 M⁻¹ s⁻¹ | B6

target: T2, human ROR1 Frizzled-His domain protein …; test: as above
Description: as §3, §4

Row | Kd | koff | kon | Binder
22 | 21.6 nM | 0.00169 s⁻¹ | 78100 M⁻¹ s⁻¹ | B13
23 | 46.3 nM | 0.00701 s⁻¹ | 151000 M⁻¹ s⁻¹ | B14
24 | 39.5 nM | 0.0062 s⁻¹ | 157000 M⁻¹ s⁻¹ | B15
25 | 16.9 nM | 0.00124 s⁻¹ | 73600 M⁻¹ s⁻¹ | B16
26 | 75.3 nM | 0.0119 s⁻¹ | 159000 M⁻¹ s⁻¹ | B17
27 | 294 nM | 0.103 s⁻¹ | 350000 M⁻¹ s⁻¹ | B8
28 | 15.6 nM | 0.00113 s⁻¹ | 72500 M⁻¹ s⁻¹ | B18
29 | 19.3 nM | 0.00174 s⁻¹ | 90100 M⁻¹ s⁻¹ | B19

target: human ROR1 Frizzled-His domain protein (amino acid sequence at positions 165-305, Acrobiosystems, RO1-H5222) (human) (UniProt Q01973); test: indirect ELISA, plate coated with human ROR1 Frizzled-His, HRP anti-human IgG Fc, OD450
Sequence (Q01973 165-305 limits assumed, form in doubt): as the sequence (Q01973 165-305 limits assumed, form in doubt) above

Row | EC50 (read off the curve) | Binder
30 | 0.07 µg/mL | B2

target: T4, human ROR1 expressed on CHO cells (CHO-K1/Human ROR1 stable cells) (human, UniProt Q01973 30-937); test: flow cytometry, 10 ug/ml antibody on Human ROR1-CHO-K1 cells (curve 1), fluorescent secondary antibody
T4 construct: whole, on cells; also called CHO-K1/ROR1/Luc (Nanjing Probio, Cat #RD00949)
Description: as §2

T4 sequence (Q01973 30-937): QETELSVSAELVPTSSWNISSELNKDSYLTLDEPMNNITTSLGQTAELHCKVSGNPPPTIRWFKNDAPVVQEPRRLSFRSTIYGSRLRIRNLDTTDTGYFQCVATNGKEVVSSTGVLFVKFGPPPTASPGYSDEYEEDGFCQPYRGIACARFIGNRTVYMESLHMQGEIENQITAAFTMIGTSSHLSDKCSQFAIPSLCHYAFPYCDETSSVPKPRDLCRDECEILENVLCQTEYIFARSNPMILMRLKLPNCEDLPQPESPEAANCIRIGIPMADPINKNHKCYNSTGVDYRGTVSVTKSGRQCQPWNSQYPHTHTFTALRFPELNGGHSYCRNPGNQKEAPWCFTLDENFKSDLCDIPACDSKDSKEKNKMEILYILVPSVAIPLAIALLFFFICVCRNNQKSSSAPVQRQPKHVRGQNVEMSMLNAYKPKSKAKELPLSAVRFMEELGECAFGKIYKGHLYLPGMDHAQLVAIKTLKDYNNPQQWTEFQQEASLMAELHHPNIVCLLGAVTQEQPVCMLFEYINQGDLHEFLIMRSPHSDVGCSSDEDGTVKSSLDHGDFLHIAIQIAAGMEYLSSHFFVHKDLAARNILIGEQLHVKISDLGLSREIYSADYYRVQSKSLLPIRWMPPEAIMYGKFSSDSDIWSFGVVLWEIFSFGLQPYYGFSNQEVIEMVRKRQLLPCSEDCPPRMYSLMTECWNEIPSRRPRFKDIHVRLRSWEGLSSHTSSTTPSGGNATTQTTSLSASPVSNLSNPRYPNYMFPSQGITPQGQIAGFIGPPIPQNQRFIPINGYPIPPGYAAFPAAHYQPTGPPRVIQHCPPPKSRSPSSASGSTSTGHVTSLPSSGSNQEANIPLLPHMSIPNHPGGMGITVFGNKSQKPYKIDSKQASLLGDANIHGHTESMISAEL

Row | Geometric Mean : Alexa Fluor 647-H | Binder
31 | 38500 | B6
32 | 33400 | B2
33 | 28700 | B7
34 | 56400 | B3
35 | 55400 | B8
36 | 61400 | B4

target: T3, mouse ROR1 expressed on CHO cells …; test: flow cytometry, 10 ug/ml antibody on Mouse ROR1-CHO-K1 cells (curve 2), fluorescent secondary antibody
Description: as §2

Row | Geometric Mean : Alexa Fluor 647-H | Binder
37 | 8630 | B6
38 | 54900 | B2
39 | 48500 | B7
40 | 75600 | B3
41 | 52800 | B8
42 | 31400 | B4
